Results as given in patent US7067473.

Tests used:
[1] = target: recombinant enovin (mature Enovin with NH2-terminal 6x His-tag, expressed from hEVNmat/pRSETB in E. coli BL21(DE3), refolded) (human); assay: SPR (BIAcore 3000, 25 °C), enovin immobilised, soluble GFRα3-Fc as analyte; KD calculated as kd/ka
[2] = target: recombinant enovin (mature Enovin with NH2-terminal 6x His-tag, expressed from hEVNmat/pRSETB in E. coli BL21(DE3), refolded) (human); assay: SPR (BIAcore 3000, 25 °C), enovin immobilised, soluble GFRα3-Fc as analyte, three concentrations

- Kd [1]: 3.1 nM
- koff [2]: 0.000508 s⁻¹
- kon [2]: 165000 M⁻¹ s⁻¹
B1: soluble GFRα-3 IgG-Fc fusion protein (GFRα-3 amino acids 28 to 371 fused to human IgG1-Fc) (Fc fusion, UniProt O60609 28-371, looked up, not shown: a dimerising Fc or GST)
chain: LAAGDPLPTESRLMNSCLQARRKCQADPTCSAAYHHLDSCTSSISTPLPSEEPSVPADCLEAAQQLRNSSLIGCMCHRRMKNQVACLDIYWTVHRARSLGNYELDVSPYEDTVTSKPWKMNLSKLNMLKPDSDLCLKFAMLCTLNDKCDRLRKAYGEACSGPHCQRHVCLRQLLTFFEKAAEPHAQGLLLCPCAPNDRGCGERRRNTIAPNCALPPVAPNCLELRRLCFSDPLCRSRLVDFQTHCHPMDILGTCATEQSRCLRAYLGLIGTAMTPNFVSNVNTSVALSCTCRGSGNLQEECEMLEGFFSHNPCLTEAIAAKMRFHSQLFSQDWPHPTFAVMAHQ
